Tests used:
[1] = molecular target: B.1.351 variant RBD (K417N, E484K, N501Y) (SARS-CoV-2) (UniProt P0DTC2); assay: BLI
[2] = molecular target: B.1.617.1/3 variant RBD (L452R, E484Q) (SARS-CoV-2) (UniProt P0DTC2); assay: BLI

ACE2-COMP (from UniProt Q9BYF1 19-615; P35444 29-73)
percent of bound ACE2-COMP retained after 8 h of dissociation [1]: 90%
percent of bound ACE2-COMP retained after 8 h of dissociation [2]: 90%

From article PMC11862925
